Reference: patent CN114195896A (AQUILARIA SINENSIS QINGSU BIOTECHNOLOGY CO LTD, dated 2022)

B1: 商业化BCMA抗原蛋白 (ACRO BIOSYSTEMS, 货号BCA-H522y-1mg) (receptor, UniProt Q02223 1-54, looked up)
chain: MLQMAGQCSQNEYFDSLLHACIPCQLRCSSNTPPLTCQRYCNASVTNSVKGTNA
notes: also called 目标抗原BCMA; 靶蛋白BCMA

Tests used:
[1] = biological target: T1, 16-B7-HM4人源化重组抗体 (humanised 16-B7-HM4 recombinant antibody, VHH fused to hIgG1 Fc) (human, UniProt P01857-1 99-330 = IgG part, limits assumed); assay: SPR, BCMA immobilised on the chip, recombinant antibody as the mobile phase
T1 construct: domain: Fc; also called 人源化重组抗体16-B7-HM4
T1 sequence (P01857 other isoform, or with tags, fused parts or gaps limits assumed): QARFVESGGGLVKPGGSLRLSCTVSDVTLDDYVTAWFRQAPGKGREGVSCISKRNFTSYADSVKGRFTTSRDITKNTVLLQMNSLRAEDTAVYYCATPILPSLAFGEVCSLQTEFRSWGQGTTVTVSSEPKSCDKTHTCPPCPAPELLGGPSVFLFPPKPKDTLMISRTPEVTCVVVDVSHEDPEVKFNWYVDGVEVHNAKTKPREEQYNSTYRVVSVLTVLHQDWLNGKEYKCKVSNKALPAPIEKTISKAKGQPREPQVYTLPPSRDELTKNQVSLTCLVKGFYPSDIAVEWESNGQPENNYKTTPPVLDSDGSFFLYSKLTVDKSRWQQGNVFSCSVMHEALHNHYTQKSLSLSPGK

[2] = biological target: BCMA expressed on recombinant cells (CHO-BCMA; Nalm6-BCMA-LUC) (UniProt Q02223); assay: flow cytometry on CHO-BCMA cells, purified antibody at 10, 2, 0.4 and 0.08 μg/mL
[3] = biological target: B1; assay: SPR, BCMA immobilised on the chip, recombinant antibody as the mobile phase

| Kd [1] [nM] | antibody concentration at saturation [2] [µg/mL] | Kd [3] [nM] | Binder |
| --- | --- | --- | --- |
| 1.06 |  |  | B1 |
|  | 2 | 3.73 | 16-B7重组抗体 (16-B7 recombinant antibody, VHH fused to hIgG1 Fc) (Fc fusion, also called 16-B7纯化重组抗体; 原始序列16-B7; not shown: human IgG1 Fc from the expression vector pcDNA3.1-hIgG1-Fc2) QARFVESGGGLVQSGGSLVLSCTVSDVTLDDYVTAWFRQAPGKEREGVSCISKRNFTSYVDSVKGRFTTSRDITKNTVLLQMNALTPEDTGVYYCATPILPSLAFGEVCSLQTEFRSWGPGTRVTVSS |
